Experimental data reported in the Human Domainome abundance scans (Beltran et al. 2025).
± gives the uncertainty stated by the source.

B1: SAM and SH3 domain-containing protein 1, residues 630 to 700; numbered along this chain, O94885 (parent)
chain: GRPPQPKSVEDLLDRINLKEHMPTFLFNGYEDLDTFKLLEEEDLDELNIRDPEHRAVLLTAVELLQEYDSN

Variants of: B1
Experiment: abundance fitness (aPCA) (normalised: wild type 0, dead -1); higher = more abundant; growth selection in yeast, the domain comes from the species named
Conditions: Homo sapiens

| Variant | abundance fitness |
| --- | --- |
| GRPPQPKSVEDLLDRINLKEHMPTFLFNGYWDLDTFKLLEEEDLDELNIRDPEHRAVLLTAVELLQEYDSN | -0.248 ± 0.049 |
| GRPPQPKSVEDLTDRINLKEHMPTFLFNGYEDLDTFKLLEEEDLDELNIRDPEHRAVLLTAVELLQEYDSN | -0.861 ± 0.077 |
| GRPPQPKSVEDELDRINLKEHMPTFLFNGYEDLDTFKLLEEEDLDELNIRDPEHRAVLLTAVELLQEYDSN | -0.768 ± 0.084 |
| GRPPLPKSVEDLLDRINLKEHMPTFLFNGYEDLDTFKLLEEEDLDELNIRDPEHRAVLLTAVELLQEYDSN | -0.345 ± 0.043 |
| GRPPHPKSVEDLLDRINLKEHMPTFLFNGYEDLDTFKLLEEEDLDELNIRDPEHRAVLLTAVELLQEYDSN | -0.033 ± 0.055 |
| GRPPVPKSVEDLLDRINLKEHMPTFLFNGYEDLDTFKLLEEEDLDELNIRDPEHRAVLLTAVELLQEYDSN | -0.149 ± 0.048 |
| GRPPQPKSVEDLLDRINLKEHMPTFLFNAYEDLDTFKLLEEEDLDELNIRDPEHRAVLLTAVELLQEYDSN | -0.806 ± 0.062 |
| GRPPQPKSVEDLLDRINLKEHMPTFLFNIYEDLDTFKLLEEEDLDELNIRDPEHRAVLLTAVELLQEYDSN | -0.893 ± 0.1 |
| GRPPQPKSVEDLLDRINLKEHMPTFLFNNYEDLDTFKLLEEEDLDELNIRDPEHRAVLLTAVELLQEYDSN | -0.762 ± 0.09 |
| GRPPQPKSVEDLLDTINLKEHMPTFLFNGYEDLDTFKLLEEEDLDELNIRDPEHRAVLLTAVELLQEYDSN | -0.164 ± 0.04 |
| GRPPQPKSVEDLLDRINLKEHRPTFLFNGYEDLDTFKLLEEEDLDELNIRDPEHRAVLLTAVELLQEYDSN | -0.612 ± 0.046 |
| GRPPQPKSVEDLLDRINLKEHHPTFLFNGYEDLDTFKLLEEEDLDELNIRDPEHRAVLLTAVELLQEYDSN | -0.313 ± 0.049 |
| GRPPQPKSVEDLLDRINLDEHMPTFLFNGYEDLDTFKLLEEEDLDELNIRDPEHRAVLLTAVELLQEYDSN | -0.643 ± 0.079 |
| GRPPQPKSVEDLLDRINLCEHMPTFLFNGYEDLDTFKLLEEEDLDELNIRDPEHRAVLLTAVELLQEYDSN | -0.419 ± 0.056 |
| GRPPQPKSVPDLLDRINLKEHMPTFLFNGYEDLDTFKLLEEEDLDELNIRDPEHRAVLLTAVELLQEYDSN | -0.357 ± 0.05 |
| GRPPQPKSVEDLLTRINLKEHMPTFLFNGYEDLDTFKLLEEEDLDELNIRDPEHRAVLLTAVELLQEYDSN | -0.086 ± 0.045 |
| GRPPQPKSVEDLLVRINLKEHMPTFLFNGYEDLDTFKLLEEEDLDELNIRDPEHRAVLLTAVELLQEYDSN | -0.287 ± 0.047 |
| GRPPQPKSVEDLLDRINLKEHMPTFLMNGYEDLDTFKLLEEEDLDELNIRDPEHRAVLLTAVELLQEYDSN | 0.327 ± 0.041 |
| GRPPQPKSVEDLLDRINLKEHMPTFLFNGYEDLWTFKLLEEEDLDELNIRDPEHRAVLLTAVELLQEYDSN | -0.704 ± 0.082 |

| Variant | abundance fitness |
| --- | --- |
| GRPPQPKSVEDLLDRINLKEHMPTFLFNGYEDLDTFKLLEEEDLDELNIRDPEHRAQLLTAVELLQEYDSN | 0.251 ± 0.041 |
| GRPPQPKSVEDLLDRINLKEHMPTFLFNGYEDLDTFKLLEEEDLDELNIRDPEHRALLLTAVELLQEYDSN | 0.199 ± 0.034 |
| GRPPQPKSVEDLLDRINLKEHMPTFLFNGYEDLDTFKLLEEEDLDELNIRDPEHRAWLLTAVELLQEYDSN | -0.397 ± 0.061 |
| GRPPQPKSVEDLLDRINLKEHMPTFLFNGYEDLDTFKLLEEEDLDELNIRDPEHRAPLLTAVELLQEYDSN | -0.484 ± 0.055 |
| GRPPQPKSVEDLLDRINLKEHMPWFLFNGYEDLDTFKLLEEEDLDELNIRDPEHRAVLLTAVELLQEYDSN | -0.892 ± 0.095 |
| GRPPQPKSVEDLLDRINLKEHMPTFLFNGYEDDDTFKLLEEEDLDELNIRDPEHRAVLLTAVELLQEYDSN | -0.76 ± 0.092 |
| GRPDQPKSVEDLLDRINLKEHMPTFLFNGYEDLDTFKLLEEEDLDELNIRDPEHRAVLLTAVELLQEYDSN | 0.343 ± 0.055 |
| GRPPQPKSVEDLLDRINLKEHMPTFLFNGYEDLDTFKLLEEEDLDELNIRDPEHRAVLLCAVELLQEYDSN | -0.293 ± 0.049 |
| GRPPQPKSVEDLLDRINLKEHMPTFLFNGYEKLDTFKLLEEEDLDELNIRDPEHRAVLLTAVELLQEYDSN | -0.197 ± 0.05 |
| GRPPQPKSVEDLLDRINLKEHMPTFLFNGYEDLDTFKLLPEEDLDELNIRDPEHRAVLLTAVELLQEYDSN | -0.914 ± 0.075 |
| GRPPQPKSVEDLLDRINLKEHMPTFLFNGYEDLDTFKLLEEEDLDELQIRDPEHRAVLLTAVELLQEYDSN | -0.393 ± 0.13 |
| GRPPQPKSVEDLLDRINLKEHMPTFLFNGYEDLDTFKYLEEEDLDELNIRDPEHRAVLLTAVELLQEYDSN | -0.117 ± 0.056 |
| GRPPQPKSVEDLLDRINLKEHMPTFLFNGYEDLDTFKALEEEDLDELNIRDPEHRAVLLTAVELLQEYDSN | -0.063 ± 0.04 |
| GRPPQPKFVEDLLDRINLKEHMPTFLFNGYEDLDTFKLLEEEDLDELNIRDPEHRAVLLTAVELLQEYDSN | -0.984 ± 0.11 |
| GRPPQPKTVEDLLDRINLKEHMPTFLFNGYEDLDTFKLLEEEDLDELNIRDPEHRAVLLTAVELLQEYDSN | -0.244 ± 0.052 |
| GRPPQPKSVEDLLDRINLKEHMPTFLFNGYEDLDVFKLLEEEDLDELNIRDPEHRAVLLTAVELLQEYDSN | -0.492 ± 0.056 |
| GRPPQPKSVEDLLDRINLKEHMPTFLFNGYEDLDTFKLLEEEDLDELNIRDPEHCAVLLTAVELLQEYDSN | -0.888 ± 0.087 |
| GRPPQPKSVEDLLDRINLKEHMPTFLFTGYEDLDTFKLLEEEDLDELNIRDPEHRAVLLTAVELLQEYDSN | -0.831 ± 0.069 |
| GRPPQPKSVEDLLDRINLKEHMPTFLFNGYEDLDTFKLLEEEILDELNIRDPEHRAVLLTAVELLQEYDSN | -0.584 ± 0.061 |
